Key:
[1] = biological target: HIV-1 reverse transcriptase p51 subunit (residues 1-440) (human immunodeficiency virus type 1 (HIV-1)); experiment: SEC-MALS
[2] = biological target: HIV-1 reverse transcriptase p66 subunit (immature RT precursor) (human immunodeficiency virus type 1 (HIV-1)); experiment: SEC-MALS

Substance	percent dimer in the NMR sample [1] [%]	stoichiometry N [1]	stoichiometry N [2]
HIV-1 reverse transcriptase p51 subunit (residues 1-440) (domain or fragment)	< 60	2	
HIV-1 reverse transcriptase p66 subunit (immature RT precursor) (enzyme)			2
